# According to patent US20060104971A1, “Multivalent lymphotoxin beta receptor agonists and therapeutic uses thereof” (Biogen Idec MA Inc., priority 2002, published 2006):
# Target: lymphotoxin beta receptor on the surface of HT29 cells (human) (UniProt P36941)
# Assay: cell-based or functional assay
# Sequence of lymphotoxin beta receptor on the surface of HT29 cells (human) (P36941 31-435): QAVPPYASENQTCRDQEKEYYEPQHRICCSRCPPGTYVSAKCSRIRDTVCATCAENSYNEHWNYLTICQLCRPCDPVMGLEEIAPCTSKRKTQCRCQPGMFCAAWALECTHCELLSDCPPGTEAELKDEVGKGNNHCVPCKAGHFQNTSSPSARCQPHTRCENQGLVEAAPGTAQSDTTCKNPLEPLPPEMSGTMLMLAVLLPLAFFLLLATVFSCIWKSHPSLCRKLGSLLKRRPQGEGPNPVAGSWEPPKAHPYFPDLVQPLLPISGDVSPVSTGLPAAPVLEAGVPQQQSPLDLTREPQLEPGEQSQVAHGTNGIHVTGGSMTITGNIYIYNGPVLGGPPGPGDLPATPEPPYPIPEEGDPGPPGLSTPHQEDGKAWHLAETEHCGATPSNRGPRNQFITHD
row,Substance,"minimum A450 (plateau of HT29 cell growth, MTT, with interferon gamma)"
1,humanized BHA10 antibody,0.9 A450
2,humanized CBE11 antibody,0.8 A450
